Assay results: US20120087899A1

Legend:
[1] = biological target: Bone morphogenetic protein-2 (BMP-2) (Homo sapiens) (UniProt P12643); assay: cell-based or functional assay
Sequence of UniProt P12643 (P12643 283-396, form in doubt): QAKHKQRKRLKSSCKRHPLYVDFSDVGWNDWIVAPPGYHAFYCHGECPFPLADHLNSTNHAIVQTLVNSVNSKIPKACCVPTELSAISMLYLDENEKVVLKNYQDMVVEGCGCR

| Substance | FXa activity (cleavage of chromogenic substrate S-2222), AT pre-incubated with HS5 (Antithrombin (AT)) | FXa activity (cleavage of chromogenic substrate S-2222), AT pre-incubated with heparin (Antithrombin (AT)) | FXa activity (cleavage of chromogenic substrate S-2222), AT pre-incubated with pHS or bHS (Antithrombin (AT)) | inhibition of BMP-2-induced ALP activity in C2C12 cells, noggin at 300 ng/mL, in the presence of heparin or HS5 (3 µg/mL) [1] [%] | inhibition of BMP-2-induced ALP activity in C2C12 cells, noggin at 300 ng/mL, no GAG [1] [%] |
| --- | --- | --- | --- | --- | --- |
| Factor Xa (FXa) | HS5 did not activate AT at any doses tested | heparin (a known anticoagulant) dose dependently activated AT resulting in the inhibition of FXa | In the presence of pHS or bHS, AT significantly reduced FXa activity, but only at 3 µg/mL |  |  |
| noggin (ligand) |  |  |  | 20 | 70 |
